Test system: 293T-rtTAadv-CymR cells
Experiment: Luciferase assay, transient transfection, DOX and Cumate vs no inducer (Example 3), rtTAadv cells
Assay type: cell-based
Protocol: 293T cells were seeded at 1.5E+06 cells per 60 mm culture dish, and cultured in DMEM (Sigam, D6429) complete medium supplemented with 10% FBS (ExCell, 11H116) at 37° C. and 5% CO 2. After 24 hours of culture, transfection was carried out according to the PEI method. During transfection, 500 μL of transfection reagent which contained 5.5 ug of total plasmid was added to each 60 mm culture dish, and the mass ratio of total plasmid to PEI MAX (Polysciences, 24765-1) was 1:4. The transfection was carried out according to the PEI method, wherein the amount of total plasmid was 5.5 μg. The transfection was performed with plasmids 19BF074:18BF019 at a molar ratio of 10:1 to obtain 293T-rtTAadv-CymR cells; and the transfection was performed with plasmids 19BF075:18BF019 at a molar ratio of 10:1 to obtain 293T-rtTA3G-CymR cells. The plasmid and PEI MAX were mixed uniformly, and then put into a culture dish after standing for 15 minutes. 3 hours after transfection, the medium was changed to a complete DMEM medium, and the transfection operation was completed. After 24 hours of transfection, the cells were digested with trypsin and all seeded in a 100 mm culture dish (Corning, 430167), and 200 μg/ml of hygromycin (Sangon Biotech A600230-0001) drug screening was performed for at least three passages. After the growth of cells under the pressure of drug screening was consistent with that of the original 293T cells, the following experiments were performed.
In Tet-On inducible expression system, the induced transcription activity and the leaky transcription activity were comprehensively affected by the TetO operator linking sequence of the TRE response element and the minimal promoter sequence, as well as different mutants of the transactivator rtTA. In addition, the transport and stability of messenger ribonucleic acid may be enhanced by linking a spliceable intron sequence downstream of the 3′ end of the response element and upstream of the 5′ end of the regulated nucleic acid fragment of interest, but the induced transcription activity and leaky transcription activity of response element of the inducible expression system may also be affected. Based on this, the optimal design scheme of complex response element was determined in this Example based on the induced expression level and the ratio of induced/leaky expression level of Luciferase gene under the combination of the following conditions: (1) Tet-On and Cumate complex response elements TREadvCuO and TRE3GCuO designed based on the TREadv and TRE3G response element sequences; (2) whether an intron was linked; (3) being regulated by the transactivator rtTAadv or rtTA3G. A total of 8 design schemes were compared in this Example: TREadv (18BF232), TREadvCuO (18BF233), TRE3G (18BF234), TRE3GCuO (18BF235), TREadv-BGI (18BF240, wherein the response element was TREadv, and a human β-globulin intron was linked between the 3′ end of the response element and the 5′ end of the Luciferase gene), TREadvCuO-BGI (18BF241, wherein the response element was TREadvCuO, and a human β-globulin intron was linked between the 3′ end of the response element and the 5′ end of the Luciferase gene), TRE3G-BGI (18BF236, wherein the response element was TRE3G, and a human β-globulin intron was linked between the 3′ end of the response element and the 5′ end of the Luciferase gene) and TRE3GCuO-BGI (18BF237, wherein the response element was TRE3GCuO, and a human β-globulin intron was linked between the 3′ end of the response element and the 5′ end of the Luciferase gene). The promoter CMV-BGI (18BF229, wherein the promoter was CMV, and a human β-globulin intron was linked between the 3′ end of the CMV promoter and the 5′ end of the Luciferase gene) was used as a positive control. […]

B1: TRE3GCuO: Tet-On (7xTetO of TRE3G) and Cumate complex response element, CuO 50 bp behind the TATA box (SEQ ID NO: 23) (nucleic acid)
DNA: TCCCTATCAGTGATAGAGAACGTATGAAGAGTTTACTCCCTATCAGTGATAGAGAACGTATGCAGACTTTACTCCCTATCAGTGATAGAGAACGTATAAGGAGTTTACTCCCTATCAGTGATAGAGAACGTATGACCAGTTTACTCCCTATCAGTGATAGAGAACGTATCTACAGTTTACTCCCTATCAGTGATAGAGAACGTATATCCAGTTTACTCCCTATCAGTGATAGAGAACGTATTAGGCGTGTACGGTGGGCGCCTATAAAAGCAGAGCTCGTTTAGTGAACCGTCAGATCGCCTGGAGCAATTCCACATACAAACAGACCAGATTGTCTGTTTGTT
modifications: TRE3GCuO50 response element sequence
- increase of induced/leaky expression ratio of TRE3GCuO over TREadvCuO: 16.4%
- induced expression level as % of the induced expression level of TRE3G: 50.4%
- induced expression level (1 ug/ml DOX and 200 ug/ml Cumate): 3.4E+06 RLU
- induced expression level as % of that of the corresponding TRE3G or TREadv single regulatory response element (DOX and Cumate): 50.4%
- induced/leaky expression ratio (DOX and Cumate vs no inducer): 1565 times

— patent US11680267B2, “Co-regulatory sequences based on tetracycline and Cumate” (Shenzhen Eureka Biotechnology Co., Ltd., priority 2020, dated 2023)
